For this series, the target named is SARS-CoV nsp12 (RdRp) (SARS-coronavirus, UniProt P0C6X7 4370-5301). The series is described as follows: EMSA; no Zn2+. Conditions: protein: recombinant; tags: C-terminal His6 (plasmid pASK3-Ub-nsp12-CHis6, ubiquitin fusion vector); label: 5' 32P. In general terms: In EMSA bound probe runs differently from free probe, usually more slowly.

These results are taken from paper PMC2973827.

B1: SAV557R/SAV481R primed template duplex (dsRNA)
RNA 1: GCUAUGUGAGAUUAAGUUAU
RNA 2: UUUUUUUUUUAUAACUUAAUCUCACAUAGC
For B1, the binding result was “binds”.
